Test results from patent US8247376B2, “NGAL for reduction and amelioration of ischemic and nephrotoxic injuries” (The Trustees of Columbia University, priority 2004, dated 2012).
Entries after “also recorded” stand apart in the source; their conditions may differ.

Columns and labels:
[1] = tested on: ischemia-reperfusion injury in mice; experiment: Serum creatinine 24 h after bilateral renal artery clamping, NGAL intravenous; assay type: in vivo
Procedure: (§1) Purified endotoxin-free NGAL was administered either intravenously into mice via tail vein injections, subcutaneously, or intraperitoneally. In preliminary studies, animals were treated with three different concentrations of NGAL (50, 100, or 250 μg of a 250 μg/100 solution), subjected to 30 minutes of bilateral renal artery clamping one hour later, and examined after 24 hours of reflow. […] All subsequent studies as reported here were carried out using the 250 μg dose of NGAL. Comparisons were made between five different animal groups: non-ischemic controls (n=8), ischemic controls pre-treated with saline alone (n=8), NGAL pre-treated one hour prior to renal artery clamping (n=6), NGAL treated during renal artery clamping (n=6), and NGAL treated one hour post renal artery clamping (n=6).
Male C57BL/6 mice (20-25 gr; Charles River) were anesthetized with intraperitoneal pentobarbital (50 mg/kg) and placed on a heating pad under a warming light to maintain 37© core body temperature. Kidneys were exposed through an abdominal section and the right kidney was either removed or its vascular pedicle and ureter ligated. The vascular pedicle of the left kidney or both kidneys was clamped by a microaneurysm clip (Kent Scientific) for 30 minutes after right nephrectomy. This period of ischemia generated reproducible renal injury but minimized mortality. During the procedure, PBS (0.5 ml) was used to dampen the peritoneum. The animal was closed with 5-0 Nylon. Saline, NGAL, retinol-loaded retinol binding protein (RBP), enterochelin, or desferroxamine mesylate (DFO) were injected into the peritoneum or subcutaneously 15 min. prior to ischemia or 1-2 hr after reperfusion.
For some studies, the mice were allowed to recover in a warmed cage, and timed urine collections were obtained. […] The mice were killed, the kidneys perfusion fixed in situ with 4% paraformaldehyde in PBS, and both kidneys harvested. One half of each kidney was snap frozen in liquid nitrogen and stored at −70° C. until further processing; a sample was fixed in formalin, paraffin-embedded, and sectioned (4 μm). Paraffin sections were stained with hematoxylin-eosin and examined histologically. The other half of each kidney was embedded in OCT compound (Tissue-Tek) and frozen sections (4 μm) obtained for immunohistochemistry.

[2] = tested on: ischemia-reperfusion injury in mice; experiment: Histopathology scoring of tubule damage (dilatation, casts, necrosis) after ischemia-reperfusion; assay type: in vivo; settings: NGAL before, during or after ischemia, 24 h reflow, vs saline controls
Procedure: Purified endotoxin-free NGAL was administered either intravenously into mice via tail vein injections, subcutaneously, or intraperitoneally. In preliminary studies, animals were treated with three different concentrations of NGAL (50, 100, or 250 μg of a 250 μg/100 solution), subjected to 30 minutes of bilateral renal artery clamping one hour later, and examined after 24 hours of reflow. […] All subsequent studies as reported here were carried out using the 250 μg dose of NGAL. […]
Kidney sections of 4 microns were stained with hematoxylin-eosin and scored for histopathologic damage to the tubules in a blinded fashion, as previously described by Yokota N. et al., Am J Physiol Renal Physiol 285: F319-F325, 2003 and Kjeldsen L. et al., Biochim Biophys Acta 1482: 272-283, 2000. Each parameter was assessed in five high power fields (40×) in the inner cortex and outer medullary regions (where the tubular damage was most evident), and an average determined for each section. […] Each parameter was scored on a scale of 0 to 4, ranging from none (O), mild (1), moderate (2), severe (3), to very severe/extensive (4).

[3] = Uptake of intravenous NGAL into kidney and urine (immunofluorescence, Western blot); assay type: in vivo, mice; settings: within one hour of iv injection of 250 μg
Procedure: as §1
For NGAL detection, frozen kidney sections were permeabilized with 0.2% Triton X-100 in PBS for 10 min, blocked with goat serum for 1 hr, and incubated with primary antibody to NGAL (1:500 dilution) for 1 hr. Slides were then exposed for 30 min in the dark to secondary antibodies conjugated with Cy5 (Amersham, Arlington Heights, Ill.), and visualized with a fluorescent microscope (Zeiss Axiophot) equipped with rhodamine filters.

N-cadherin = N-cadherin immunofluorescence and immunoblot in ischemic kidney; assay type: in vivo, mice; settings: pre-treatment with NGAL, 6 or 24 hours of reperfusion
From the text: After 6 or 24 hr of reperfusion, heparinized plasma, urine and kidney samples were obtained to measure NGAL (polyclonal 1:500), Heme oxygenase-1 (Stressgen, 1:2000), E-cadherin (BD Transduction Labs, 1:2000), N-cadherin (BD Transduction Labs, 1:3000) and GAPDH (Chemicon International, 1:3000) using immunoblots. Plasma was also used for creatinine and blood urea nitrogen colorimetric assays. Sagittal sections of the kidney were fixed in 4% formalin, or were snap frozen for mRNA and protein analysis. Paraffin-embedded sections (5 μm) were stained with hematoxylin-eosin or by an in situ kit (Fluorescein-TUNEL, Roche) for apoptotic nuclei or for total nuclei (Toprol, Molecular Probes). For cell proliferation analysis, BrdU was injected into the peritoneum 1 hour before sacrifice, and cryostat sections were stained with anti-BrdU (Roche) according to the manufacturer.

[4] = NGAL trafficking after intraperitoneal or subcutaneous injection; assay type: in vivo, mice
From the text: Recombinant human and mouse GST-NGAL were expressed in BL21 or XL1-Blue strains of E. coli (Stratagene) with additional ferric sulfate (50 Micro Molar, Sigma-Aldrich Co.). NGAL was isolated using Glutathione Sepharose 4B beads (Amersham Biosciences), eluted by thrombin cleavage (Sigma-Aldrich Co.; St. Louis, Mo.) and then further purified by gel filtration (Superdex75, SMART system, Amersham Biosciences) and examined by Coomassie gels (Biorad). BL-21 derived NGAL was loaded with iron free or iron saturated enterochelin, a siderophore (EMC Microcollections) using a 5 fold molar excess. Unbound siderophore (0.7 KD) was removed by washing (Microcon YM-10) with PBS. To produce ^55Fe or gallium (Ga) loaded NGAL we incubated the iron-free enterochelin NGAL complex with equimolar ^55Fe (18mCi) or Ga in NaCl (150 mM) Hepes (20 mM; pH 7.4) and the complex was washed 3 times (10K filter). Iodobeads (Pierce) were used to label NGAL with ^125I and unincorporated ^125I was removed by gel filtration (PD-10 column) followed by extensive dialysis (7 kDa cut off membrane, Pierce) against PBS. Alexa-568 and fluorescein isothiocyanate (Molecular Probes) was coupled to NGAL, according to the manufacturer, and then extensively dialyzed. Protein concentration was determined by Coomassie gels in comparison with bovine serum albumin standard.
To detect delivery of NGAL to the kidney rNGAL (10 or 100 μg), Alexa 568-NGAL (100 μg), ^125I-NGAL ([…], 2×10^6 cpm), or ^55Fe loaded enterochelin-NGAL (10 μg, 1×10^6 cpm) was injected into the peritoneum and blood, urine, kidney and liver samples were obtained. NGAL was detected by immunoblot. Alexa-568 NGAL was detected by confocal microscopy (LSM Meta Detector) and NGAL mediated iron trafficking was detected by scintillation counter and by light microscopic radioautography of Epon embedded kidneys. Slides were exposed to emulsion (Polyscience) for 1 week and then developed with Microdol and counterstained with Toluidine blue. To detect lysosomes in the proximal tubule, mice were injected with Fluorescein Dextran (46 kD; 0.5 mg; Sigma) 24 hours before Alexa 568 NGAL injections. LAMP1 (Santa Cruz) was detected in cryostat sections of 4% paraformaldehyde fixed kidneys.

B1: NGAL: Purified endotoxin-free recombinant NGAL expressed as GST fusion protein in bacteria, thrombin cleaved (protein, UniProt P80188 21-198, looked up)
Neutrophil …: QDSTSDLIPAPPLSKVPLQQNFQDNQFQGKWYVVGLAGNAILREDKDPQKMYATIYELKEDKSYNVTSVLFRKKKCDYWIRTFVPGCQPGEFTLGNIKSYPGLTSYLVRVVSTNYNQHAMVFFKKVSQNREYFKITLYGRTKELTSELKENFIRFSKSLGLPENHIVFPVPIDQCIDG
protection from the tubular damage and azotemia ([1]; 250 μg NGAL one hour before 30 min bilateral renal artery clamping, 24 h reflow, vs saline, doses 50, 100, 250 μg tested): significant protection from the tubular damage and azotemia | serum creatinine at 24 hours of reflow ([1]; NGAL 250 μg iv during ischemia (Dur NGAL)): 1.5±0.2 mg/di | serum creatinine at 24 hours of reflow ([1]; NGAL 250 μg iv one hour after ischemia (Post NGAL)): 1.95±0.2 mg/di | serum creatinine at 24 hours of reflow ([1]; NGAL 250 μg iv one hour before ischemia (Pre NGAL), saline 2.6±0.28, non-ischemic 0.65±0.13): 1.25 ± 0.3 mg/dL | histopathologic score (dilatation, casts, cell necrosis; scale 0 to 4) [2]: significantly improved score | NGAL in urine by Western blot [3]: detected in the urine within one hour of injection; also recorded: easily detected in the kidney and urine | NGAL in kidney by immunofluorescence ([3]; ischemic mice): easily detected in a punctate cytoplasmic distribution predominantly in the proximal tubules | N-cadherin expression in ischemic kidney (N-cadherin): preserved N-cadherin immunofluorescence, enhanced the expression of full length N-cadherin and reduced the appearance of its fragment; also recorded: rescued | time to appearance of NGAL in the urine ([4]; injection of 100 μg exogenous NGAL): ≤ 10 min | injected NGAL recovered in the urine in the first hour ([4]; mouse, in vivo): 0.1-0.2%
